The test has as its target piggyBat transposase (Myotis lucifugus). The test can be described thus: AUC; sedimentation velocity, ~3.1 µM purified pBat without DNA, 500 mM NaCl, 25 mM Tris-HCl pH 7.4, 0.5 mM TCEP, 50,000 rpm, 20 °C, c(s) analysis.

Experimental findings from PMC11707139 are described below.

Substance piggyBat transposase (enzyme) yielded a stoichiometry N of 2.

The stoichiometry N is a count of units in the complex or per binding partner.
